This passage reports activity (fidelity index) results from US20130122568.

Holding throughout (experiment): cleavage_in_vitro
Data set [1] deals with T1, NcoI (Nocardia corallina).
T1 sequence: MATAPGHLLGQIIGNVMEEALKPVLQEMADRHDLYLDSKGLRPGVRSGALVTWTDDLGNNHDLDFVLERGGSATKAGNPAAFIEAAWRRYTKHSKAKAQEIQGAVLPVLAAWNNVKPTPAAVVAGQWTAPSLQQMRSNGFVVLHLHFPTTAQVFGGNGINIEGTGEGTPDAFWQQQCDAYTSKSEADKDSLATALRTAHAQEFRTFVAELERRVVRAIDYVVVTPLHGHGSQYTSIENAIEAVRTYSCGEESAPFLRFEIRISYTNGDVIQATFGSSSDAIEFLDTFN
Particulars: NEB1, 37 C.

Data set [2] concerns T2, NcoI-HF A2T/R31A (Nocardia corallina).
T2 sequence: T1 sequence with A2T, R31A
Particulars: NEB4, 37 C.

Data set [3] deals with T3, SbfI (Streptomyces species Bf-61).
T3 sequence: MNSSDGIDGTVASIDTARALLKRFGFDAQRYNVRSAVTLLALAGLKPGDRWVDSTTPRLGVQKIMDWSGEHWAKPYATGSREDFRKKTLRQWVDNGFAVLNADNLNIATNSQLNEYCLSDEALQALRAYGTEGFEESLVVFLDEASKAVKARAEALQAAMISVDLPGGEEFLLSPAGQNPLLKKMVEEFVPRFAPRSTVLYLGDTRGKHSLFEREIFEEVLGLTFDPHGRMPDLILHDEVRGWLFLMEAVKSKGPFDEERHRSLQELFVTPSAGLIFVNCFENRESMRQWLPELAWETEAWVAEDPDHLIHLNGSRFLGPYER
Particulars: NEB1, 37 C.

The target of data set [4] is T4, ScaI-HF H193A/S201F (Streptomyces caespitosus) (UniProt O52691).
T4 sequence: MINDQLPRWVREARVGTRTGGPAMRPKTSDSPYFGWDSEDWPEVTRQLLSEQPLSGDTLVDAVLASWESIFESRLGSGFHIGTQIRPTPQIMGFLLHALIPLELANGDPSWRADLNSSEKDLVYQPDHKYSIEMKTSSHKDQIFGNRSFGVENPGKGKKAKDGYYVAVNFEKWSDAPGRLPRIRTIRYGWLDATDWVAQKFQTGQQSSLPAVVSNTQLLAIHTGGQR
As to conditions: NEB2, 37 C.

The target in data set [5] is EcoRI (Escherichia coli RY13) (UniProt P00642). As to conditions: NEB3, 37 C.
Sequence of EcoRI (Escherichia coli RY13) (P00642 whole entry): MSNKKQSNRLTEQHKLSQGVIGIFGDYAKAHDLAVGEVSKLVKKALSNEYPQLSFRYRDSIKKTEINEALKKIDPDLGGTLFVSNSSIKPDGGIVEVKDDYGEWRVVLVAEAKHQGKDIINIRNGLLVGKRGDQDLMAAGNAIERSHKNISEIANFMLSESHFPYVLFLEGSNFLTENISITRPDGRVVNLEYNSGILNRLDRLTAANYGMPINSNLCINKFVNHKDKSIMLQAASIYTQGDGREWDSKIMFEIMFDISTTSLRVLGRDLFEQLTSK
In data set [6] the test system is T5, BsmBI (Bacillus stearothermophilus).
T5 sequence: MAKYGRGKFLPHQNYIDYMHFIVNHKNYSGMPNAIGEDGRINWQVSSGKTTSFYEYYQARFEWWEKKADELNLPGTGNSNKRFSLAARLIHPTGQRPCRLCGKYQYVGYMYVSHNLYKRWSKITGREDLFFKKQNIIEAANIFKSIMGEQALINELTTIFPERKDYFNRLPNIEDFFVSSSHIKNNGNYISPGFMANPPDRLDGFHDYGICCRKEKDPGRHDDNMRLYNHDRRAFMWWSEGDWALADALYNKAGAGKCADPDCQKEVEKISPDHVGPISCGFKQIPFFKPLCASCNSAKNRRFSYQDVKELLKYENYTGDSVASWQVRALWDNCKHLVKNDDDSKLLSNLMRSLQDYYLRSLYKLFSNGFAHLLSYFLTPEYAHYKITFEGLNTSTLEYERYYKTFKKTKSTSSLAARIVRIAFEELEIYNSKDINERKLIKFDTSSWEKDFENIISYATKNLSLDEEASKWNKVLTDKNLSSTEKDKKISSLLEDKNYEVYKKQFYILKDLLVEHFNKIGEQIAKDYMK
As to conditions: NEB3, 55 C.

The subject of data set [7] is T6, BsmBI-HF N185Y/R232A (Bacillus stearothermophilus).
T6 sequence: T5 sequence with N185Y, R232A
Particulars: NEB2, 55 C.

The target in data set [8] is T7, BamHI (Bacillus amyloliquefaciens) (UniProt P23940).
T7 sequence: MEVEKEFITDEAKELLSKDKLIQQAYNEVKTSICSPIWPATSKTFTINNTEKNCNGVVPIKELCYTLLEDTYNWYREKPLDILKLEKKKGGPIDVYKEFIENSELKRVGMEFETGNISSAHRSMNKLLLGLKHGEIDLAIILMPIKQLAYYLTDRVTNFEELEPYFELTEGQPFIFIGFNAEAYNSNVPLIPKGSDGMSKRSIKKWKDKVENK
As to conditions: NEB3, 37 C.

Data set [9] has as its system T8, SbfI-HF K251A (Streptomyces species Bf-61).
T8 sequence: T3 sequence with K251A
Particulars: NEB1, 37 C.

Residue numbers refer to the chain shown, from its start.

On to lambda phage DNA, for which the activity (fidelity index) in data set [1] is 120; in data set [2], over 64000; in [3] it was 32; in data set [4], 1000; in [5] it was 250; in [6], 120. The figures for the activity (fidelity index) in data set [7], in data set [8] and in [9] were over 500, 32 and 1000, respectively.
